Measurements from patent US20240116985A1 (published 2024).
Starred links: 1 amine or outer side, 2 acyl side, 3 side chain; linkers in the order of their positions; H or OH if unused. Positions of bridges follow the written chain, without caps; N, C: chain ends. Non-standard residues stand in square brackets, D forms with d. Primed or numbered codes have the meaning given here. No end group written: not given here. (Pfbn)GA″ = [Pfbn]GA: (S)-2-amino-3-((carboxymethyl)((perfluorophenyl)methyl)amino)propanoic acid, O=C([C@H](CN(CC(=O)[*:3])Cc1c(F)c(F)c(F)c(F)c1F)N[*:1])[*:2]; PyrS2″ = (S)-3-amino-1-((pent-4-en-1-yloxy)carbonyl)pyrrolidine-3-carboxylic acid (stapling residue), C=CCCCOC(=O)N1CC[C@@](N[*:1])(C(=O)[*:2])C1; B5(4) = 2,2-bis(4-pentenyl)glycine = 2-amino-2-(pent-4-en-1-yl)hept-6-enoic acid (stitching residue), C=CCCCC(CCCC=C)(N[*:1])C(=O)[*:2]; (sBu)GA = [sBu]GA: (2S)-2-amino-3-(sec-butyl(carboxymethyl)amino)propanoic acid, CCC(C)N(CC(=O)[*:3])C[C@H](N[*:1])C(=O)[*:2]; PyrS2 = (S)-3-amino-1-((pent-4-en-1-yloxy)carbonyl)pyrrolidine-3-carboxylic acid, C=CCCCOC(=O)N1CC[C@@](N[*:1])(C(=O)[*:2])C1; (Et)GA = [Et]GA: (S)-2-amino-3-((carboxymethyl)(ethyl)amino)propanoic acid, CCN(CC(=O)[*:3])C[C@H](N[*:1])C(=O)[*:2]; B5(3) = 2,2-bis(4-pentenyl)glycine (stitching residue), C=CCCCC(CCCC=C)(N[*:1])C(=O)[*:2]; B5 = 2-amino-2-(pent-4-en-1-yl)hept-6-enoic acid, C=CCCCC(CCCC=C)(N[*:1])C(=O)[*:2]; Phe(2-CF3) = N[C@@H](Cc1ccccc1C(F)(F)F)C(=O)O; Phe(2-CONH2) = NC(=O)c1ccccc1C[C@H](N)C(=O)O; Phe(2-Br) = N[C@@H](Cc1ccccc1Br)C(=O)O; Phe(2-Cl) = N[C@@H](Cc1ccccc1Cl)C(=O)O; Phe(2-OMe) = COc1ccccc1C[C@H](N)C(=O)O; Phe(2-F) = N[C@@H](Cc1ccccc1F)C(=O)O; Phe(2-Me) = Cc1ccccc1C[C@H](N)C(=O)O; Bta = N[C@@H](Cc1csc2ccccc12)C(=O)O; αAllylPro = C=CC[C@@]1(C(=O)O)CCCN1; tBuAla = CC(C)(C)C[C@H](N)C(=O)O; 3Thi = N[C@@H](Cc1ccsc1)C(=O)O; Cha = N[C@@H](CC1CCCCC1)C(=O)O; S8 = C=CCCCCCC[C@](C)(N)C(=O)O; hLeu = CC(C)CC[C@H](N)C(=O)O; PyrS2(4) = not defined here

B1: I-1622 (peptide)
peptide: Ac-[αAllylPro]D[tBuAla][B5(3)]D[(Et)GA]AAFN[PyrS2(4)][Phe(2-Cl)][Bta]Q-NH2
modifications: staple 1-4, 4-11; not fully specified; printed as Ac-PL3-Asp-Npg-B5-Asp-[Et]GA-Ala-Ala-Phe-Asn-PyrS2-2C1F-BztA-Gln-NH2; reading uncertain

Columns and labels:
Assay in all cases: cell-based or functional assay
B-cat-Halo [1] = target: T1, B-cat-Halo (UniProt P35222 1-781)
T1 sequence (looked up): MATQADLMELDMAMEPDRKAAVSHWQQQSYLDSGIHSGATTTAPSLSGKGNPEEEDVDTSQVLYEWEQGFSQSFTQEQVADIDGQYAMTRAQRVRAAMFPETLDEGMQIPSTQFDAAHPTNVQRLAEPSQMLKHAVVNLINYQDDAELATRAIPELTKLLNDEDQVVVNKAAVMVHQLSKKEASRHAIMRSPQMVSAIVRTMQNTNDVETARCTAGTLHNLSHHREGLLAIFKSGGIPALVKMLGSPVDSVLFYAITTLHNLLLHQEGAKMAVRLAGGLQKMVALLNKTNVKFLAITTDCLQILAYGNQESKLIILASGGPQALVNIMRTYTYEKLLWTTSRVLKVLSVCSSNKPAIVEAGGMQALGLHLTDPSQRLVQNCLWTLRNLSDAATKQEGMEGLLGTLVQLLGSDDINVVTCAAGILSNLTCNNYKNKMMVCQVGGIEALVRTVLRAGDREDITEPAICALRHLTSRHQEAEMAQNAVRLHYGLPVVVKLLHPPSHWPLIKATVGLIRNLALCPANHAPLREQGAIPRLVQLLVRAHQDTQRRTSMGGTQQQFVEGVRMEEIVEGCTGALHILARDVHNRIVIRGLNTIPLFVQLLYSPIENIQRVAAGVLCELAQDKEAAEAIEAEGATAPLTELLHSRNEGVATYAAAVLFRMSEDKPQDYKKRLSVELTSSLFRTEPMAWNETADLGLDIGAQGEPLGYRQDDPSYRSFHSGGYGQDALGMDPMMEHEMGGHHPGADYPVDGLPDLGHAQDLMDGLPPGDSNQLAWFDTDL

B-cat-Halo [2] = target: T2, B-cat-Halo (UniProt P35222 1-781); remark: listed apart in the source
T2 sequence (looked up): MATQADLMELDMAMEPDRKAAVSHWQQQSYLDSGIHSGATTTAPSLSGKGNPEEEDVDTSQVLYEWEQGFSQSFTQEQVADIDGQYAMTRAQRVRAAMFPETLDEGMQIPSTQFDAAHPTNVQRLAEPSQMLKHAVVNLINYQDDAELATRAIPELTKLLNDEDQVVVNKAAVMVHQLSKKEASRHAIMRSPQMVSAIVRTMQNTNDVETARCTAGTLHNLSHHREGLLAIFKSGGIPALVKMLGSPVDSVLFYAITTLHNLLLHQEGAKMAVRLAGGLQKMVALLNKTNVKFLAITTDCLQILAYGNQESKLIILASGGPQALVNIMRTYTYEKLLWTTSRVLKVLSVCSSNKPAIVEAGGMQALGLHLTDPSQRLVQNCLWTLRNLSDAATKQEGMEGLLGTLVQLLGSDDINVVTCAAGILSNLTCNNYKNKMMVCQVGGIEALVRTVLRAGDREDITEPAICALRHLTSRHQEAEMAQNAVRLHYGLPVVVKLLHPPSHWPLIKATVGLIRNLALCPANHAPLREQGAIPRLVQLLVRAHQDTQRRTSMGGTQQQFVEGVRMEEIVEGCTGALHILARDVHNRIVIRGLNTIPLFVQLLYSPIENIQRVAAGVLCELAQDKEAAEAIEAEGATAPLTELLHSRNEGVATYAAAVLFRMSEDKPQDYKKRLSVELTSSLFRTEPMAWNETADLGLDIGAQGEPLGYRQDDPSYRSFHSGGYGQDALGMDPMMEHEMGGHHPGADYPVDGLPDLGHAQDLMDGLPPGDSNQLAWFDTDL

B-cat-Halo [3] = target: T3, B-cat-Halo (UniProt P35222 1-781); remark: listed apart in the source
T3 sequence (looked up): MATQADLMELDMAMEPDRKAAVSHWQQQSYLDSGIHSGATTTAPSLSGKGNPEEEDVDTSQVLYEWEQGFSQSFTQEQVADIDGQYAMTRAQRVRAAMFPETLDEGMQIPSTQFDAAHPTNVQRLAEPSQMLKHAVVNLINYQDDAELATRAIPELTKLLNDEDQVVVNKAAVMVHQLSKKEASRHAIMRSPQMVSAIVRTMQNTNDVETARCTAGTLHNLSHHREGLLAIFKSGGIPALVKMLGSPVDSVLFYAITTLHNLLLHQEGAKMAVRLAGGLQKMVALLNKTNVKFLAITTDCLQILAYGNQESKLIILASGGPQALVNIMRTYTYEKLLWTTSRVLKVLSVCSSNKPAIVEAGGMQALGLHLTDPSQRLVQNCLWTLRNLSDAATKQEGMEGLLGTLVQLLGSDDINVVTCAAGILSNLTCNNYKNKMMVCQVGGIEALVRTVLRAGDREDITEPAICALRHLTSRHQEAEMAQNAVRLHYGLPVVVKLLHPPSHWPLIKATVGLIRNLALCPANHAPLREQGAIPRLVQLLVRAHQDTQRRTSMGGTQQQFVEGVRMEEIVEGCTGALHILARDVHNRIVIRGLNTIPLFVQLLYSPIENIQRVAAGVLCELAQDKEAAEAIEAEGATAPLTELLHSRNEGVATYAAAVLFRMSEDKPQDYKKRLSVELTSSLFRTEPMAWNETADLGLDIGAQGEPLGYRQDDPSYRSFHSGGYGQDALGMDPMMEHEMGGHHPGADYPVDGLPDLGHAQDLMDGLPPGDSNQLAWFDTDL

Row | Binder | NanoBRET Abs IC50 (B-cat-Halo [1]) [µM] | further results
1 | [αAllylPro]D[tBuAla][B5]DDAAFN[PyrS2][Cha][Bta]Q-NH2 (staple 1-4, 4-11) [I-1329] | 35 | –
2 | Ac-[αAllylPro]D[tBuAla][B5(3)]D[(Et)GA]AAFN[S8][3Thi][Bta]Q-NH2 (staple 1-4, 4-11; also: later eluting staple isomer) [I-1628] | – | NanoBRET Abs IC50 (B-cat-Halo [2]): > 20 µM
3 | Ac-[αAllylPro]D[tBuAla][B5(4)]DDAAFF[PyrS2″][2cbmF][Bta]Q-NH2 (staple 1-4, 4-11) [I-1316] | 6.8 | –
4 | Ac-[αAllylPro]D[tBuAla][B5(3)]D[(Pfbn)GA″]AAFN[S8][3Thi][Bta]Q-NH2 (staple 1-4, 4-11) [I-1624] | – | NanoBRET Abs IC50 (B-cat-Halo [2]): 42.9 µM
5 | Ac-[αAllylPro]D[tBuAla][B5(4)]DDAAFL[PyrS2″][Phe(2-F)][Bta]Q-NH2 (staple 1-4, 4-11) [I-1321] | 10.9 | –
6 | Ac-[αAllylPro]D[tBuAla][B5(4)]DDAAFN[PyrS2″][Phe(2-F)][Bta]Q-NH2 (staple 1-4, 4-11) [I-1320] | 26.2 | –
7 | Ac-[αAllylPro]D[tBuAla][B5(3)]D[(sBu)GA]AAFN[PyrS2″][Phe(2-Cl)][Bta]Q-NH2 (staple 1-4, 4-11) [I-1623] | – | NanoBRET Abs IC50 (B-cat-Halo [2]): 27.7 µM
8 | [αAllylPro]D[tBuAla][B5(4)]DDAAFL[PyrS2″][Phe(2-Br)][Bta]Q-NH2 (staple 1-4, 4-11) [I-1324] | 5.8 | –
9 | Ac-[αAllylPro]D[tBuAla][B5(4)]DDAAFF[PyrS2″][Phe(2-F)][Bta]Q-NH2 (staple 1-4, 4-11) [I-1322] | 9.1 | –
10 | [αAllylPro]D[tBuAla][B5(4)]DDAAFL[PyrS2″][Phe(2-OMe)][Bta]Q-NH2 (staple 1-4, 4-11) [I-1327] | 7 | –
11 | [αAllylPro]D[tBuAla][B5(4)]DDAAFF[PyrS2″][Phe(2-Br)][Bta]Q-NH2 (staple 1-4, 4-11) [I-1325] | 5.7 | –
12 | Ac-[αAllylPro]D[tBuAla][B5(4)]DDAAFN[PyrS2″][Phe(2-CF3)][Bta]Q-NH2 (staple 1-4, 4-11) [I-1317] | 9.7 | –
13 | B1 | – | NanoBRET Abs IC50 (B-cat-Halo [2]): > 20 µM
14 | Ac-[αAllylPro]D[tBuAla][B5(3)]DDAAFN[PyrS2][3Thi][Bta]-NH2 (staple 1-4, 4-11) [I-785] | – | NanoBRET Abs IC50 (B-cat-Halo [3]): 21.6 µM
15 | Ac-[αAllylPro]D[tBuAla][B5(4)]DDAAFN[PyrS2″][Phe(2-Br)][Bta]Q-NH2 (staple 1-4, 4-11) [I-1323] | 11.7 | –
16 | Ac-[αAllylPro]D[hLeu][B5(3)]DDAAFN[PyrS2][3Thi][Bta]Q-NH2 (staple 1-4, 4-11) [I-787] | – | NanoBRET Abs IC50 (B-cat-Halo [3]): 30.7 µM
17 | Ac-[αAllylPro]D[tBuAla][B5(4)]DDAAFN[PyrS2″][Phe(2-CONH2)][Bta]Q-NH2 (staple 1-4, 4-11) [I-1314] | > 20 | –
18 | [αAllylPro]D[tBuAla][B5(4)]DDAAFF[PyrS2″][Phe(2-Me)][Bta]Q-NH2 (staple 1-4, 4-11) [I-1326] | 6.2 | –
